This assay has as its target T1, PDZ domain of GIPC/synectin displayed on T7 phage (UniProt O14908 133-213, limits assumed).
T1 construct: domain: PDZ domain; also called GIPC/Synectin-PDZ T7 phage; GIPC-PDZ
T1 sequence (looked up): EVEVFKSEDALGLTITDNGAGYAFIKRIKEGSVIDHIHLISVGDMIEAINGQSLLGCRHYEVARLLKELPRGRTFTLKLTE
The experiment in a line: phage ELISA, biotinylated peptide on Neutravidin plate, GIPC-PDZ T7 phage. Here is the method: Neutravidin plates (Pierce) were coated in duplicate with 100 μL of 10 μg/mL solutions of N-terminal biotinylated peptides ([…] (SEQ ID NO: 3) (from GAIP), KKETEV (SEQ ID NO: 12) and KKETAV (SEQ ID NO: 13) (two sequences that bind PDZ3 of PSD-95 (21), and allowed to incubate 1-2 h at 37° C. (or overnight at 4° C.) with mild shaking. The unbound peptides were washed away three times with TBS (0.5% Tween-20)-TBST buffer. Blocking buffer was prepared by diluting BSA […] in TBS stock two-fold in dH2O (for a 5% BSA final concentration) and free biotin (1 mM). Alternatively, SuperBlock in PBS buffer (Pierce) with free biotin (1 mM) was used. The blocking buffer was added to each well and allowed to incubate 30-60 min at 37° C. with mild shaking. The blocking buffer was washed away with TBST by inverting the plate and tapping off the excess with each of the 4-5 washes. The GIPC/Synectin-PDZ T7 phage to be screened with the biotinylated peptides were prepared by adding phage stock (1 mL, 20 μL) derived from one of the eight plaques (discussed above) to freshly harvested BLT5403 E. coli at OD ˜1. Once lysis was observed, the cell debris was spun down and phage lysate was used in a plaque assay (as discussed above) to determine the titer (phage titer added to wells 5×10⁹ pfu). […] The substrate was added to each well, and the development was measured at 405 nm after 30 min, 1 h and 2 h.
For orientation: In an ELISA, binding on a coated surface is turned into a signal by an enzyme label.

From patent US20120040915A1 (MAYO FOUNDATION FOR MEDICAL EDUCATION AND RESEARCH, published 2012) come the findings set out here.

Ends that are not written are not given here. * marks the point of attachment. Biotin = O=C1N[C@H]2[C@H](CS[C@H]2CCCCC(=O)*)N1

B1: N-terminal biotinylated peptide KKETEV (SEQ ID NO: 12) (peptide)
peptide: Biotin-KKETEV
notes: Comparison peptide in the phage ELISA
Take B1: the binding result is on record as “no binding”.

B2: N-terminal biotinylated peptide KKETAV (SEQ ID NO: 13) (peptide)
peptide: Biotin-KKETAV
notes: as for B1
For B2, the binding result is recorded as “no binding”.
